In article PMC5841360:

Target: mycGluA2 (recombinant) (UniProt P19491)
Assay: co-IP with flag antibody, myc-GluA2 blot
Conditions: reference: wild type; sites Y421,Y466,Y482

binding against the reference: stronger
Substance: flag-cortactin (recombinant) (from UniProt Q60598) Y421F/Y466F/Y482F (TYM)
